Data as given in patent publication US20200392233A1 (ACCELERON PHARMA, published 2020).
Positions count from the first letter of the chain named. One block for each binder: values may come before it.

How the values were obtained:
[1] = molecular target: T1, ALK7-Fc comprising protein; test: SPR (Biacore T100/T200) at 25 °C, antibody captured on FAB chip, ALK7-Fc analyte, 1:1 fit
T1 construct: It is probably the human protein
Method: (§1) Experiments were performed using a Biacore T100/T200 biosensor (Biacore/GE Healthcare) at 25 and 37° C. ALK7 antibodies were captured on custom made FAB chip. A concentration series of ALK7-Fc comprising protein was injected over the flow cells at a flow rate of […]. To obtain kinetic rate constants the corrected data were fit to a 1:1 interaction model using BiaEvaluation software (GE Healthcare). The equilibrium binding constant KD was determined by the ratio of binding rate constants kd/ka.

[2] = molecular target: T2, rat Alk7-Fc comprising protein (rat, UniProt P70539 26-113); test: SPR (Biacore T100/T200), antibody captured on FAB chip, Alk7-Fc analyte, 1:1 fit
T2 construct: not shown: Fc portion and any linker of the Alk7-Fc comprising protein are not described
T2 sequence: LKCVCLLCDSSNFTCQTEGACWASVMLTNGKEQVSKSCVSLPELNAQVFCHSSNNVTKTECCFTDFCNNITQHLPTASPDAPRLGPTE
Method: as §1

T1 sequence (Q8NER5 22-113): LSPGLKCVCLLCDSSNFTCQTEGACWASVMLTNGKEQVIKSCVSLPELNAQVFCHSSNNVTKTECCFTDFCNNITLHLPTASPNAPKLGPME

Kd [1]: 0.87 nM
koff [1]: 2.59e-05 s⁻¹
kon [1]: 29900 M⁻¹ s⁻¹
B1: G05 (antibody, V domains shown)
VH: QVQLVQSGAEVKKPGSSVKVSCKASGGTFSGQAISWVRQAPGQGLEWMGGIIPSFGTARYAQKFQGRVTITADESTSTAYMELSSLRSEDTAVYYCARTPYYDSSGYLDVWGQGTMVTVSS
VL: DIQMTQSPSSLSASVGDRVTITCQASHDIDNYLNWYQQKPGKAPKLLIYYASNLKTGVPSRFSGSGSGTDFTFTISSLQPEDIATYYCQQSRASPPTFGGGTKVEIK
notes: also called mAb G05; ALK7 mAb G05

koff [2]: 0.000478 s⁻¹
B4: J01 (antibody, V domains shown)
VH: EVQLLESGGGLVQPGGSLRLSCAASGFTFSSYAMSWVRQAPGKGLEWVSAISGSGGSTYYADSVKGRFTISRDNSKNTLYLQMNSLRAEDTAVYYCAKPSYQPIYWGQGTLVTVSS
VL: DIQMTQSPSSVSASVGDRVTITCRASQGISSWLAWYQQKPGKAPKLLIYAASSLQSGVPSRFSGSGSGTDFTLTISSLQPEDFATYYCQQAASYPLTFGGGTKVEIK
notes: also called antibody J01

More lines, now with the values behind:

B2: C03 (antibody, V domains shown)
VH: QLQLQESGPGLVKPSETLSLTCTVSGGSISSSAYYWAWIRQPPGKGLEWIGSIYLSGSTTYNPSLKSRVTISVDTSKNQFSLKLSSVTAADTAVYYCARDGRYQSRSPDYYYGMDVWGQGTTVTVSS
VL: EIVLTQSPGTLSLSPGERATLSCKASQSVSSSYLAWYQQKPGQAPRLLIYGAFSRANGIPDRFSGSGSGTDFTLTISRLEPEDFAVYYCQQLVSYPFTFGGGTKVEIK
notes: also called mAb C03; ALK7 mAb C03
Kd [1]: 0.33 nM
koff [1]: 1.27e-05 s⁻¹
kon [1]: 38300 M⁻¹ s⁻¹

B3: L02 (antibody, V domains shown)
VH: QVQLVQSGAEVKKPGASVKVSCKASGYTFAGYNMHWVRQAPGQGLEWVGIINPNSGWTNYAQKFQGRVTMTRDTSVSAAYMELSRLRSDDTAVYYCARDPVGARYEVFDYWGQGTLVTVSS
VL: EIVMTQSPATLSVSPGERATLSCRASQSVSSALAWYQQKPGQAPRLLIYSAFTRASGIPARFSGSGSGTEFTLTISSLQSEDFAVYYCQQAWAFPLTFGGGTKVEIK
notes: also called mAb L02
Kd [1]: 0.44 nM
koff [1]: 1.21e-05 s⁻¹
kon [1]: 27400 M⁻¹ s⁻¹

B5: J02 (antibody, V domains shown)
VH: EVQLLESGGGLVQPGGSLRLSCAASGFTFSVYAMSWVRQAPGKGLEWVSAISGSGDSTVYADSVKGRFTISRDNSKNTLYLQMNSLRAEDTAVYYCAKPSYQPIYWGQGTLVTVSS
VL: B4 VL
notes: also called mAb J02; ALK7 mAb J02
Kd [1]: 5.33 nM
koff [1]: 0.000126 s⁻¹
kon [1]: 23600 M⁻¹ s⁻¹

B6: K02 (antibody, V domains shown)
VH: QVQLVQSGAEVKKPGSSVKVSCKASGGTFSSSAIGWVRQAPGQGLEWMGGIWPIFGTALYAQKFQGRVTITADESTSTAYMELSSLRSEDTAVYYCARDPREYIHVFDIWGQGTMVTVSS
VL: B4 VL with V11L, G28S, W32Y, A34N, A50G, A92Y, Y94F, L96W, T102I
notes: also called mAb K02; KO2
Kd [1]: 12.4 nM
koff [1]: 0.000291 s⁻¹
kon [1]: 23500 M⁻¹ s⁻¹
